Measured values: patent publication US20170298096A1 (CANIMGUIDE THERAPEUTICS, published 2017)
No end group written: not given here.

T1: His-tagged P3028 (human, not fully specified)
T1 construct: the tag is put first after 'PGE73=His-tag-P3028'; also called PGE73; not shown: His-tag
T1 peptide: {His‑tag}-VFDEFKPLVEEPQNLIK


Molecular target: T1, His-tagged P3028
Assay: chip ELISA

Row | Binder | ELISA signal
1 | KKLDTFFVKLDLFTER [P28R S11D] | 322
2 | KKLDTFFVKLVLFTER [P28R S11V] | 392
3 | KKLDDFFVKLSLFTER [P28R T5D] | 295
4 | KKLDTFFVKLSLFLER [P28R T14L] | 360
5 | KKLDTFFVKLYLFTER [P28R S11Y] | 402
6 | KKLDTFFVKLTLFTER [P28R S11T] | 520
7 | KKLDTFFVKLELFTER [P28R S11E] | 234
8 | KKLDTFFVKLHLFTER [P28R S11H] | 535
9 | KKLDIFFVKLSLFTER [P28R T5I] | 293
10 | KKLDTFFVKLKLFTER [P28R S11K] | 323
11 | KKLDTFFVKLQLFTER [P28R S11Q] | 768
12 | KKLDMFFVKLSLFTER [P28R T5M] | 475
13 | KKLDTFFFKLSLFTER [P28R V8F] | 358
14 | KKLDTFFVKLSLFVER [P28R T14V] | 380
15 | KKLDTFFVKLSLFKER [P28R T14K] | 259
16 | KKLDWFFVKLSLFTER [P28R T5W] | 418
17 | KKLDTFFVKLWLFTER [P28R S11W] | 324
18 | KKLDTFFVKLSLFYER [P28R T14Y] | 270
19 | KKLDFFFVKLSLFTER [P28R T5F] | 290
20 | KKLDEFFVKLSLFTER [P28R T5E] | 341
21 | KKLDTFFVKLSLFNER [P28R T14N] | 599
22 | KKLDTFFVKLSLFHER [P28R T14H] | 463
23 | KKLDTFFHKLSLFTER [P28R V8H] | 213
24 | KKLDTFFVKLILFTER [P28R S11I] | 289
25 | KKLDTFFVKLNLFTER [P28R S11N] | 451
26 | KKLDTFFVKLSLFQER [P28R T14Q] | 301

Row | Binder | ELISA signal
27 | KKLDTFFVKLSLFWER [P28R T14W] | 374
28 | KKLDAFFVKLSLFTER [P28R T5A] | 346
29 | KKLDTFFVKLMLFTER [P28R S11M] | 744
30 | KKLDVFFVKLSLFTER [P28R T5V] | 374
31 | KKLDRFFVKLSLFTER [P28R T5R] | 430
32 | KKLDLFFVKLSLFTER [P28R T5L] | 311
33 | KKLDQFFVKLSLFTER [P28R T5Q] | 535
34 | KKLDTFFVKLSLFIER [P28R T14I] | 375
35 | KKLDTFFVKLSLFRER [P28R T14R] | 264
36 | KKLDTFFVKLSLFSER [P28R T14S] | 369
37 | KKLDTFFVKLFLFTER [P28R S11F] | 250
38 | KKLDTFFVKLSLFAER [P28R T14A] | 305
39 | KKLDSFFVKLSLFTER [P28R T5S] | 458
40 | KKLDYFFVKLSLFTER [P28R T5Y] | 425
41 | KKLDHFFVKLSLFTER [P28R T5H] | 391
42 | KKLDKFFVKLSLFTER [P28R T5K] | 237
43 | KKLDTFFVKLSLFFER [P28R T14F] | 348
44 | KKLDTFFVKLSLFEER [P28R T14E] | 110
45 | KKLDTFFVKLLLFTER [P28R S11L] | 213
46 | KKLDTFFEKLSLFTER [P28R V8E] | 139
47 | KKLDNFFVKLSLFTER [P28R T5N] | 436
48 | KKLDTFFVKLRLFTER [P28R S11R] | 333
49 | KKLDTFFAKLSLFTER [P28R V8A] | 299
50 | KKLDTFFVKLSLFDER [P28R T14D] | 159
51 | KKLDTFFDKLSLFTER [P28R V8D] | 122
52 | KKLDTFFVKLSLFMER [P28R T14M] | 501
